Measurements published in patent publication US20060110396A1.

Molecular target: Human CDw52 (human) (UniProt P31358)
Experiment: cell-based or functional assay

CAMPATH (antibody) was tested, and the 51Cr release assay, lysis (apoptosis) of macrophage-cell line THP-1 after 18 h was 70% and the 51Cr release assay, lysis (apoptosis) of macrophage-cell line U-937 after 18 h was 55%.
